In patent publication US6904369:

Molecular target: Kit, the receptor for SCF (UniProt P10721)
Experiment: cell-based or functional assay

Chain of Kit, the receptor for SCF (P10721 26-976 limits assumed): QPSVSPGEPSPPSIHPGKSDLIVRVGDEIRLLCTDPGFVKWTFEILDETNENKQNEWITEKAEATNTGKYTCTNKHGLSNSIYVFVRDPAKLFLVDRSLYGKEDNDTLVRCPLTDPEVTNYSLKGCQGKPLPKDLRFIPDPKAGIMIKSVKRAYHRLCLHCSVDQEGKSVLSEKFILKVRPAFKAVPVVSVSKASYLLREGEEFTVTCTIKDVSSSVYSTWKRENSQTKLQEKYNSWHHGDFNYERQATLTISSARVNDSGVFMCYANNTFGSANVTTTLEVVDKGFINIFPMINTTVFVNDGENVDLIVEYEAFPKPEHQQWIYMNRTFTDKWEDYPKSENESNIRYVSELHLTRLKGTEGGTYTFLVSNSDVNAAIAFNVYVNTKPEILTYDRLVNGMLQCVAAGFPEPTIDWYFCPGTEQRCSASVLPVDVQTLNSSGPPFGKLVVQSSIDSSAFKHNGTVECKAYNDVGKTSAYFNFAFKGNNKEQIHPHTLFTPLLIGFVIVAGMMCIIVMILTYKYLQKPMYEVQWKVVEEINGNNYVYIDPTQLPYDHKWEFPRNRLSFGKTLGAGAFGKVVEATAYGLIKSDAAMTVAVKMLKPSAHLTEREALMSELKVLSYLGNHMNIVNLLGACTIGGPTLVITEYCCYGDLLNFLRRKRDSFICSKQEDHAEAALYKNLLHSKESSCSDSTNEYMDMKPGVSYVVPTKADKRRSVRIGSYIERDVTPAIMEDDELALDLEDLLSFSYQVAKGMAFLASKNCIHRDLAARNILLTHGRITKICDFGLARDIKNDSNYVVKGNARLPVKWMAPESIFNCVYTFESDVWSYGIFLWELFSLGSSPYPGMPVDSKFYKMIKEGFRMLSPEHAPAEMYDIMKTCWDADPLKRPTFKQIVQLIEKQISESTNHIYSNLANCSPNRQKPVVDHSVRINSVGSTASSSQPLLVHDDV

Substance	Biological Activity (Approximate, compared to wild type SCF) (fold lower than wild type SCF)
SCF(D25C) (from UniProt P21583 26-166) (ligand)	100
SCF(K62C) (from UniProt P21583 26-166) (ligand)	7
SCF(K78N, N81K) (from UniProt P21583 26-166) (ligand)	3
SCF(R117A, I118A) (from UniProt P21583 26-166) (ligand)	10
